Source: patent US20250074946A1 (HEBEI FITNESS BIOTECHNOLOGY, published 2025)
Where two headings read alike, the source gives them in different places.

Tests used:
HLA-DR1 [1] = target: HLA-DR1 (human); experiment: fluorescence polarization competition; displaces 25 nM fluorescently-labeled polypeptide from 500 nM HLA-DR1
HLA-DR1 [2] = target: HLA-DR1 (human); experiment: as above; remark: listed apart in the source

Binder: IWYINCFACETHAML [APL11]
- IC50 (HLA-DR1 [1]): 3.98 µM

Binder: IWYINCFGCHTAAML [APL56]
- IC50 (HLA-DR1 [2]): 69.2 µM

Binder: IWYINCFVCETHAML [APL12]
- IC50 (HLA-DR1 [1]): 5.2 µM

Binder: IWYITCFGCETHAML [APL10]
- IC50 (HLA-DR1 [1]): 5.87 µM

Binder: IWYINCFGCRTAAML [APL55]
- IC50 (HLA-DR1 [2]): 98.8 µM

Binder: RSFALASSETGVG [APL13]
- IC50 (HLA-DR1 [1]): 5.02 µM

Binder: MGPKGRTVIIEQSLGSPKVTK (also called ALP21) [APL21]
- IC50 (HLA-DR1 [1]): 4.15 µM

Binder: RSFTAASSETGVG [APL14]
- IC50 (HLA-DR1 [1]): 6.54 µM

Binder: RSGTLASAETGVG [APL60]
- IC50 (HLA-DR1 [2]): 61.7 µM

Binder: FKGEQAGAGE [FNS007 (APL2)]
- IC50 (HLA-DR1 [1]): 3.37 µM

Binder: RSFTLASSEAGVG [APL18]
- IC50 (HLA-DR1 [1]): 4.88 µM

Binder: SIDLKDKKYKNIGAKLVQLVANNTNEEA [APL20]
- IC50 (HLA-DR1 [1]): 3.88 µM

Binder: IWYISCFGCETHAML [APL9]
- IC50 (HLA-DR1 [1]): 5.09 µM

Binder: FKGRQAGAGE [APL41]
- IC50 (HLA-DR1 [2]): 88.4 µM

Binder: IWYIQCFGCETHAML [APL8]
- IC50 (HLA-DR1 [1]): 5.47 µM

Binder: RSFTLAASETGVG [APL16]
- IC50 (HLA-DR1 [1]): 5.55 µM

Binder: RSFTLASSATGVG [APL17]
- IC50 (HLA-DR1 [1]): 3.53 µM
